In PMC6546751 one finds Kd data, which are given here for 2 substances.

The target in this assay is FITC-casein (fluorescein-labeled casein, Sigma #C0528) (bovine). The assay can be described thus: not stated; apparent Kd of ClpB for casein in the presence of ATPγS (Supplementary Fig. 1d); method not given.

With “Escherichia coli ClpB, wild type (from UniProt P63284 1-857) (enzyme)”, the Kd was found to be 130 nM.

For the substance “Escherichia coli ClpB K476C hyperactive middle-domain variant (from UniProt P63284 1-857) (enzyme)”, the Kd was determined as 110 nM.
